We go through 1 substance from PMC4303269.

This test has as its target histone octamer.

Consider “nucleosome assembly protein 1 (yNap1) (from UniProt P25293 1-417) (natural protein)”, for which the nucleosome formation fraction (package ratio, 15 min) of tethered 836-bp DNA in single-molecule TPM, 7.5 nM histone octamer pre-incubated with 15 nM yNap1, 150 mM NaCl (87.3 % without chaperone) worked out at 70.5%.
